Sequences and labels used below:
B2: TOFU-6 eTUDOR domain (residues 119-314) (domain or fragment, C. elegans, UniProt Q09293 119-314, looked up)
chain: VLLSSSWLPLNKDIEVEVVDYLPSSSVAPDLFALTLLRINDSSMKEKYDSMHEKMNAYAQIVPFDSELEIGYDGVFRDAPRSVRRVRRISATKLYLVDFGKIINYEKAKCFQLPKVFQSMPTRVSLCGLDGLTWSPVAIPSFDNIREVVKKWGQMENSTLHAMACGFQGSINMINLFCGKSILADRLQRKGVCEYL
notes: TOFU-6, C. elegans, eTUDOR domain, residues 119-314; also called extended TUDOR domain of TOFU-6

What all share (conditions): both partners purified
One test deals with T1, MBP-TOFU-6^eTUDOR domain (C. elegans, UniProt Q09293 119-314).
T1 construct: TOFU-6, C. elegans, eTUDOR domain (residues 119-314 as stated for TOFU-6^eTUDOR); source: purified recombinant
T1 sequence (looked up): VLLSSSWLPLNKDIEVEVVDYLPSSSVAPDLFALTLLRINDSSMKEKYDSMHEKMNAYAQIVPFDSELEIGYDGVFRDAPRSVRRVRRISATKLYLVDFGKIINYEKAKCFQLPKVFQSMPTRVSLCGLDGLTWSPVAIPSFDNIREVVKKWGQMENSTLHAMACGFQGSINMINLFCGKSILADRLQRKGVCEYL
Put plainly: pull-down; purified MBP-TOFU-6^eTUDOR constructs as bait (MBP pull-down) and GST-tagged TOFU-1 constructs as bait (GST pull-down); 20 mM Tris/HCl pH 7.5, 150 mM NaCl, 10% glycerol, 0.05% NP40, 1 mM DTT; SDS-PAGE with Coomassie staining.

A further test deals with T2, MBP-tagged TOFU-1^82-373 (C. elegans, UniProt O17608 82-373).
T2 construct: TOFU-1 (SLFL-1), C. elegans, residues 82-373; source: E. coli BL21(DE3) derivative, purified; not shown: MBP, N-terminal, kept
T2 sequence (looked up): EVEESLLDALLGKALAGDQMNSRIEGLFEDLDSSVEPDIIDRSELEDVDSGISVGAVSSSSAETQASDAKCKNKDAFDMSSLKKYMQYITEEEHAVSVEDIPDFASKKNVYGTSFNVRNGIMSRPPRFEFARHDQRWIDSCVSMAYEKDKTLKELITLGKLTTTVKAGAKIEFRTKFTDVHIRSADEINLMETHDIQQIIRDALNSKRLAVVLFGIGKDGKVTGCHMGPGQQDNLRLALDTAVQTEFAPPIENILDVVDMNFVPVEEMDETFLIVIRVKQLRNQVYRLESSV
Put plainly: pull-down; purified MBP-tagged TOFU-1 as bait on amylose beads, incubated with excess prey; 20 mM Tris/HCl pH 7.5, 150 mM NaCl, 10% glycerol, 0.05% NP40, 1 mM DTT; SDS-PAGE with Coomassie staining.

Test [1] addresses B2. Put plainly: SEC; purified proteins alone or mixed at 20-40 uM, 1 h on ice; Superdex 200 Increase 3.2/300 in 20 mM Tris/HCl pH 7.5, 150 mM NaCl, 2 mM DTT; elution volumes compared, peak fractions on SDS-PAGE. On the technique in general: In gel filtration, larger molecules generally elute earlier.
The target of another test is T3, TOFU-6^eTUDOR V266E (C. elegans, UniProt Q09293 119-314, V266E).
T3 construct: TOFU-6, C. elegans, eTUDOR domain (residues 119-314 as stated for TOFU-6^eTUDOR) with V266E; source: purified recombinant
T3 sequence (looked up): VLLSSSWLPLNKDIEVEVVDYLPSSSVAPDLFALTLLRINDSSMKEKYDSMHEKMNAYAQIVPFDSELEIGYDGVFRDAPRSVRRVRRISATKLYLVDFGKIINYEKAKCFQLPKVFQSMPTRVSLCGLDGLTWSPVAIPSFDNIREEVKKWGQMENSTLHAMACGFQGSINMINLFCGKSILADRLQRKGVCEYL
The test is described as above.

In test [2] the target is B2. Put plainly: ITC; TOFU-6^eTUDOR (injectant, 400-450 uM) titrated into TOFU-1^W-82-113 (cell, 45-48 uM); 25 C; 20 mM Tris, 250 mM NaCl, 0.5 mM TCEP, pH 7.50; mean of three experiments. (ITC needs no label: the signal is the heat of the interaction.)

B1: GST-tagged TOFU-1^82-113 (peptide, UniProt O17608 82-113, looked up)
chain: EVEESLLDALLGKALAGDQMNSRIEGLFEDLD
notes: also called TOFU-1^pep; source: purified recombinant; not shown: GST, N-terminal, kept
As for B1, the binding result with MBP-TOFU-6^eTUDOR domain is reported as “binds”.

With B2, the binding result in the test with MBP-tagged TOFU-1^82-373 is “binds”.

B3: TOFU-1^pep (residues 82-113) (peptide, UniProt O17608 82-113, looked up)
chain: EVEESLLDALLGKALAGDQMNSRIEGLFEDLD
notes: also called first helix of the N-terminal part of TOFU-1; source: E. coli BL21(DE3) derivative, purified
For B3, in test [1], the binding result is reported as “binds”.

B4: TOFU-1^82-172 L88R/L92R (domain or fragment, C. elegans, UniProt O17608 82-172, looked up)
chain: EVEESLRDALRGKALAGDQMNSRIEGLFEDLDSSVEPDIIDRSELEDVDSGISVGAVSSSSAETQASDAKCKNKDAFDMSSLKKYMQYITE
notes: source: purified recombinant
With B4, the binding result in test [1] was “binds”.

B5: TOFU-1^82-172 (domain or fragment, C. elegans, UniProt O17608 82-172, looked up)
chain: EVEESLLDALLGKALAGDQMNSRIEGLFEDLDSSVEPDIIDRSELEDVDSGISVGAVSSSSAETQASDAKCKNKDAFDMSSLKKYMQYITE
notes: also called TOFU-1^N; source: E. coli BL21(DE3) derivative, purified
With B5, the binding result (in the test with TOFU-6^eTUDOR V266E; in test [1]) was “binds” each time.

B6: TOFU-1^W-82-113 (peptide)
chain: WEVEESLLDALLGKALAGDQMNSRIEGLFEDLD
notes: tryptophan residue added at the N terminus so that the concentration can be determined; Used for ITC and crystallization; also called TOFU-1^pep; TOFU-1 peptide; source: purified (engineered TOFU-1 peptide)
B6: in test [2], the Kd was roughly 20 µM.

In general, Kd refers to the free concentration of one partner at which half of the binding sites on the other are occupied at equilibrium, for simple one-to-one binding. Low values mean a tighter complex, high ones a looser complex.

These data come from publication PMC10567574, “piRNA processing by a trimeric Schlafen-domain nuclease” (Nature, 2023).
